B1: Protein maelstrom homolog, residues 3 to 71; numbered along this chain, Q96JY0 (parent)
chain: NRKASRNAYYFFVQEKIPELRRRGLPVARVADAIPYCSSDWALLREEEKEKYAEMAREWRAAQGKDPGP

± gives the uncertainty stated by the source.

In this series the parent is B1. The experiment in a line: abundance fitness (aPCA) (normalised: wild type 0, dead -1); higher = more abundant; growth selection in yeast, the domain comes from the species named. Conditions: Homo sapiens.
Turning to NRKASRNAYYFFVQEKIPELRRRGLPEARVADAIPYCSSDWALLREEEKEKYAEMAREWRAAQGKDPGP [V27E], the abundance fitness is -0.831 ± 0.15.

For the variant NRKASRNAYYFFVQEKIPELRRRGLPLARVADAIPYCSSDWALLREEEKEKYAEMAREWRAAQGKDPGP [V27L], the abundance fitness was -0.329 ± 0.062.

With NRKASRNAYYFFVQEKIPELRRRGLPDARVADAIPYCSSDWALLREEEKEKYAEMAREWRAAQGKDPGP [V27D], the abundance fitness is -0.738 ± 0.45.

Take NRKASRNAYYFFVQEKIPELRRRGLPFARVADAIPYCSSDWALLREEEKEKYAEMAREWRAAQGKDPGP [V27F]: the abundance fitness was -0.159 ± 0.18.

Turning to NRKASRNAYYFFVQEKIPELRRRGLPNARVADAIPYCSSDWALLREEEKEKYAEMAREWRAAQGKDPGP [V27N], the abundance fitness was -0.02 ± 0.21.

As for NRKASRNAYYFFVQEKIPELRRRGLPMARVADAIPYCSSDWALLREEEKEKYAEMAREWRAAQGKDPGP [V27M], the abundance fitness is -0.511 ± 0.1.

Turning to NRKASRNAYYFFVQEKIPELRRRGLPPARVADAIPYCSSDWALLREEEKEKYAEMAREWRAAQGKDPGP [V27P], the abundance fitness is -0.73 ± 0.18.

As for NRKASRNAYYFFVQEKIPELRRRGLPGARVADAIPYCSSDWALLREEEKEKYAEMAREWRAAQGKDPGP [V27G], the abundance fitness is -0.594 ± 0.078.

In the case of NRKASRNAYYFFVQEKIPELRRRGLPKARVADAIPYCSSDWALLREEEKEKYAEMAREWRAAQGKDPGP [V27K], the abundance fitness was -0.744 ± 0.17.

On to NRKASRNAYYFFVQEKIPELRRRGLPCARVADAIPYCSSDWALLREEEKEKYAEMAREWRAAQGKDPGP [V27C], for which the abundance fitness is -0.026 ± 0.1.

As for NRKASRNAYYFFVQEKIPELRRRGLPIARVADAIPYCSSDWALLREEEKEKYAEMAREWRAAQGKDPGP [V27I], the abundance fitness was -0.319 ± 0.16.

Consider NRKASRNAYYFFVQEKIPHLRRRGLPVARVADAIPYCSSDWALLREEEKEKYAEMAREWRAAQGKDPGP [E19H], for which the abundance fitness is -0.54 ± 0.14.

As to NRKASRNAYYFFVQEKIPNLRRRGLPVARVADAIPYCSSDWALLREEEKEKYAEMAREWRAAQGKDPGP [E19N], the abundance fitness was -0.966 ± 0.47.

Take NRKASRNAYYFFVQEKIPVLRRRGLPVARVADAIPYCSSDWALLREEEKEKYAEMAREWRAAQGKDPGP [E19V]: the abundance fitness was -0.25 ± 0.06.

For NRKASRNAYYFFVQEKIPQLRRRGLPVARVADAIPYCSSDWALLREEEKEKYAEMAREWRAAQGKDPGP [E19Q], the abundance fitness was -0.623 ± 0.13.

In the case of NRKASRNAYYFFVQEKIPPLRRRGLPVARVADAIPYCSSDWALLREEEKEKYAEMAREWRAAQGKDPGP [E19P], the abundance fitness is -0.733 ± 0.14.

Regarding NRKASRNAYYFFVQEKIPMLRRRGLPVARVADAIPYCSSDWALLREEEKEKYAEMAREWRAAQGKDPGP [E19M], the abundance fitness is -0.303 ± 0.088.

Regarding NRKASRNAYYFFVQEKIPRLRRRGLPVARVADAIPYCSSDWALLREEEKEKYAEMAREWRAAQGKDPGP [E19R], the abundance fitness is -0.674 ± 0.058.

As for NRKASRNAYYFFVQEKIPKLRRRGLPVARVADAIPYCSSDWALLREEEKEKYAEMAREWRAAQGKDPGP [E19K], the abundance fitness is -0.686 ± 0.11.

For the variant NRKASRNAYYFFVQEKIPSLRRRGLPVARVADAIPYCSSDWALLREEEKEKYAEMAREWRAAQGKDPGP [E19S], the abundance fitness was -0.204 ± 0.053.

As for NRKASRNAYYFFVQEKIPLLRRRGLPVARVADAIPYCSSDWALLREEEKEKYAEMAREWRAAQGKDPGP [E19L], the abundance fitness was -0.412 ± 0.067.

Take NRKASRNAYYFFVQEKIPDLRRRGLPVARVADAIPYCSSDWALLREEEKEKYAEMAREWRAAQGKDPGP [E19D]: the abundance fitness is -0.093 ± 0.15.

Regarding NRKASRNAYYFFVQEKIPCLRRRGLPVARVADAIPYCSSDWALLREEEKEKYAEMAREWRAAQGKDPGP [E19C], the abundance fitness is -0.548 ± 0.15.

With NRKASRNAYYFFVQEKIPELRWRGLPVARVADAIPYCSSDWALLREEEKEKYAEMAREWRAAQGKDPGP [R22W], the abundance fitness is -0.557 ± 0.09.

NRKASRNAYYFFVQEKIPELRTRGLPVARVADAIPYCSSDWALLREEEKEKYAEMAREWRAAQGKDPGP [R22T]: the abundance fitness was -0.242 ± 0.087.

As for NRKASRNAYYFFVQEKIPELRKRGLPVARVADAIPYCSSDWALLREEEKEKYAEMAREWRAAQGKDPGP [R22K], the abundance fitness came out at 0.162 ± 0.1.

For the variant NRKASRNAYYFFVQEKIPELRNRGLPVARVADAIPYCSSDWALLREEEKEKYAEMAREWRAAQGKDPGP [R22N], the abundance fitness was -0.154 ± 0.12.

As to NRKASRNAYYFFVQEKIPELRDRGLPVARVADAIPYCSSDWALLREEEKEKYAEMAREWRAAQGKDPGP [R22D], the abundance fitness is -0.079 ± 0.12.

Regarding NRKASRNAYYFFVQEKIPELRVRGLPVARVADAIPYCSSDWALLREEEKEKYAEMAREWRAAQGKDPGP [R22V], the abundance fitness was -0.738 ± 0.12.

As to NRKASRNAYYFFVQEKIPELRARGLPVARVADAIPYCSSDWALLREEEKEKYAEMAREWRAAQGKDPGP [R22A], the abundance fitness turned out to be 0.006 ± 0.063.

Consider NRKASRNAYYFFVQEKIPELRSRGLPVARVADAIPYCSSDWALLREEEKEKYAEMAREWRAAQGKDPGP [R22S], for which the abundance fitness is -0.046 ± 0.058.

For NRKASRNAYYFFVQEKIPELRMRGLPVARVADAIPYCSSDWALLREEEKEKYAEMAREWRAAQGKDPGP [R22M], the abundance fitness was -0.261 ± 0.085.

As for NRKASRNAYYFFVQEKIPELRYRGLPVARVADAIPYCSSDWALLREEEKEKYAEMAREWRAAQGKDPGP [R22Y], the abundance fitness was -0.583 ± 0.2.

For NRKASRNAYYFFVQEKIPELRPRGLPVARVADAIPYCSSDWALLREEEKEKYAEMAREWRAAQGKDPGP [R22P], the abundance fitness is -0.763 ± 0.13.

In the case of NRKASRNAYYFFVQEKIPELRCRGLPVARVADAIPYCSSDWALLREEEKEKYAEMAREWRAAQGKDPGP [R22C], the abundance fitness was -0.791 ± 0.22.

As to NRKASRNAYYFFVQEKIPELRGRGLPVARVADAIPYCSSDWALLREEEKEKYAEMAREWRAAQGKDPGP [R22G], the abundance fitness is -0.14 ± 0.073.

Consider NRKASRNAYYFFVQEKIPELRIRGLPVARVADAIPYCSSDWALLREEEKEKYAEMAREWRAAQGKDPGP [R22I], for which the abundance fitness was -0.732 ± 0.23.

As for NRKASRNAYYFFVQEKIPELRLRGLPVARVADAIPYCSSDWALLREEEKEKYAEMAREWRAAQGKDPGP [R22L], the abundance fitness was -0.11 ± 0.065.

Regarding NRKASRNAYYFFVQEKIPELRHRGLPVARVADAIPYCSSDWALLREEEKEKYAEMAREWRAAQGKDPGP [R22H], the abundance fitness was -0.036 ± 0.15.
